Experimental data reported in patent US7901879B2, “Lactoferrin in the treatment of malignant neoplasms and other hyperproliferative diseases” (Agennix Incorporated, priority 2002, dated 2011).
“And” between values parts separate entries of the source, which are not always exact repeats. Equal values may be shown once. Marks after values point to notes of the source that are not given here.

How the values were obtained:
[1] = system: NK-activity against YAC targets; assay: Ex vivo NK activity of spleen NK cells against YAC targets (LDH release) after oral rhLF; format: in vivo, Balb/c naïve mice; conditions: for % Cytotoxicity Increased over ctrl: rhLF minus placebo; for % Cytotoxicity Final: oral 300 mg/kg/day 3 days
Experimental: Balb/c naïve mice were treated orally with rhLF or placebo once a day for 3 days (see Table 4).
On day 4, mice were sacrificed and spleens were collected. NK cells were separated using a magnetic bead cell sorting assay (MACS anti-NK-DX5) and counted. Cells were then tested in vitro for NK-activity against YAC targets using a lactate dehydrogenase (LDH) release test.
Balb/c naïve mice were treated orally with rhLF or placebo once a day for 3 days. One day later (day 4), mice were sacrificed and spleens collected. NK cells were separated using a magnetic bead cell sorting assay (MACS anti-NK-DX5) and counted. Cells were then tested in vitro for NK-activity against YAC targets using a lactate dehydrogenase (LDH) release test.

[2] = system: O12 human oropharyngeal squamous cell carcinoma tumor cells; assay: Intratumoral rhLF in O12 tumors in nude mice (Example 17); format: in vivo, athymic nude mice
Experimental: O12 human oropharyngeal squamous cell carcinoma tumor cells were injected to the right flank of athymic nude mice. Recombinant human lactoferrin and vehicle controls were dosed via intratumoral injection. Each animal was administered different concentrations of rhLF in 50 μL doses consisting of four separate injections of approximately 12.5 μL of the dose, at different directions and angles (approximately S/N/E/W) to ensure that the dose was distributed evenly throughout the tumor (fanning).
In this study, rhLF was administered directly into the tumor. Each animal was tracked daily for tumor growth by external caliper measurements of the protruding tumor.

[3] = system: Human squamous cell carcinoma (O12); assay: Tumor growth inhibition by rhLF in O12 tumor model in mice (Example 1); format: in vivo, athymic nude mice
Experimental: Human squamous cell carcinoma (O12) was used. The cells were injected into the right flank of athymic nude mice. rhLF was administered either intratumorally (49 animals, 7 doses ranging from 0.05 μg to 125 μg per dose), intravenously (7 animals, 125 ug/dose) or orally (7 animals 20 mg/dose). Control animals were treated with only the vehicle; no rhLF was administered to the control animals. rhLF was administered twice a day for either five days (intravenous group) or eight days (all other groups) starting 11 days after inoculation with tumor cells to allow formation of established tumors.
The efficacy of treatment was evaluated by measuring the solid tumor size during and at the end of the experiment; the body weights were also determined at the time of tumor measurements.

B1: Recombinant human lactoferrin (protein, UniProt P02788 20-710, looked up)
Lactotransferrin: GRRRSVQWCAVSQPEATKCFQWQRNMRKVRGPPVSCIKRDSPIQCIQAIAENRADAVTLDGGFIYEAGLAPYKLRPVAAEVYGTERQPRTHYYAVAVVKKGGSFQLNELQGLKSCHTGLRRTAGWNVPIGTLRPFLNWTGPPEPIEAAVARFFSASCVPGADKGQFPNLCRLCAGTGENKCAFSSQEPYFSYSGAFKCLRDGAGDVAFIRESTVFEDLSDEAERDEYELLCPDNTRKPVDKFKDCHLARVPSHAVVARSVNGKEDAIWNLLRQAQEKFGKDKSPKFQLFGSPSGQKDLLFKDSAIGFSRVPPRIDSGLYLGSGYFTAIQNLRKSEEEVAARRARVVWCAVGEQELRKCNQWSGLSEGSVTCSSASTTEDCIALVLKGEADAMSLDGGYVYTAGKCGLVPVLAENYKSQQSSDPDPNCVDRPVEGYLAVAVVRRSDTSLTWNSVKGKKSCHTAVDRTAGWNIPMGLLFNQTGSCKFDEYFSQSCAPGSDPRSNLCALCIGDEQGENKCVPNSNERYYGYTGAFRCLAENAGDVAFVKDVTVLQNTDGNNNEAWAKDLKLADFALLCLDGKRKPVTEARSCHLAMAPNHAVVSRMDKVERLKQVLLHQQAKFGRNGSDCPDKFCLFQSETKNLLFNDNTECLARLHGKTTYEKYLGPQYVAGITNLKKCSTSPLLEACEFLRK
notes: human lactoferrin produced recombinantly
relative increase of NK activity over placebo-treated animals ([1]; 30:1 E:T ratio, p<0.05): 243% | % Cytotoxicity Increased over ctrl ([1]; E:T ratio 3.7:1): 0% | % Cytotoxicity Increased over ctrl ([1]; E:T ratio 7.5:1): 0% | % Cytotoxicity Increased over ctrl ([1]; E:T ratio 15:1): 1.3% | % Cytotoxicity Increased over ctrl ([1]; E:T ratio 30:1): 7** % | % Cytotoxicity Final ([1]; E:T ratio 3.7:1): 0% | % Cytotoxicity Final ([1]; E:T ratio 7.5:1): 0.44% | % Cytotoxicity Final ([1]; E:T ratio 15:1): 4.12% | % Cytotoxicity Final ([1]; E:T ratio 30:1, 300 mg/kg/day): 10% and 9.81% | % Cytotoxicity Final ([1]; E:T ratio 30:1, listed as RhLF, 300 mg/kg/day): 9.81% | reduction of rates of tumor growth versus pooled placebo ([2]; Group A, single intratumoral dose, day 11 after administration, p<0.05): 50% | reduction of rates of tumor growth versus pooled control group ([2]; Group C, intratumoral twice daily for 8 days, p<0.01): 56% | Inhibition Relative to Placebo ([3]; intratumoral, twice a day for eight days, 0.05 μg to 125 μg per dose, Day 19): 28% | Inhibition Relative to Placebo ([3]; intratumoral, twice a day for eight days, 0.05 μg to 125 μg per dose, Day 28): 46% | Inhibition Relative to Placebo ([3]; intravenous 125 ug/dose twice a day for five days, Day 19): 55% | Inhibition Relative to Placebo ([3]; intravenous 125 ug/dose twice a day for five days, Day 28): 65% | Inhibition Relative to Placebo ([3]; oral 20 mg/dose twice a day for eight days, Day 19): 76% | Inhibition Relative to Placebo ([3]; oral 20 mg/dose twice a day for eight days, Day 28): 80%
